Consider 1 molecule from article PMC2715106 (PLoS ONE, 2009).

Details in all cases: both partners purified
Assay [1] addresses T1, terbium-labeled core RNA polymerase (E. coli, UniProt P0A7Z4 1-329; P0A8V2 1-1342; P0A8T7 1-1407; P0A800 1-91, CS124-DTPA-Phe-NCS-Tb-chelate on randomly labeled lysine residues of core RNAP, 1:1 ratio of Tb-chelate to molecule of core; which subunit is not told | CS124-DTPA-Phe-NCS-Tb-chelate on randomly …).
T1 construct: E. coli RNA polymerase α subunit; E. coli RNA polymerase β subunit; E. coli RNA polymerase β' subunit; E. coli RNA polymerase ω subunit; also called Tb-core; Tb-core RNAP; copies: 2 + 1 + 1 + 1
As to the kind of experiment: FRET or BRET; LRET saturation binding, homogeneous; fluorescein-sigma serially diluted, 10 nM Tb-core; TG (50 mM Tris-HCl pH 7.9, 5% glycerol) + 100 mM KGlu; 1 h at 22°C; [core]0 set at 5 nM in the fit. (In general: In BRET a luciferase serves as donor, and the signal depends on an acceptor being close.)

Assay [2] addresses T1, terbium-labeled core RNA polymerase. As to the kind of experiment: FRET or BRET; LRET saturation binding, homogeneous; fluorescein-sigma serially diluted, 10 nM Tb-core; TG (50 mM Tris-HCl pH 7.9, 5% glycerol) + 100 mM NaCl; 1 h at 22°C; [core]0 set at 5 nM in the fit.
Assay [3] shares this target. Briefly: FRET or BRET; LRET saturation binding, homogeneous; fluorescein-sigma serially diluted, 10 nM Tb-core; TG (50 mM Tris-HCl pH 7.9, 5% glycerol) + 250 mM KGlu; 1 h at 22°C; [core]0 set at 5 nM in the fit.
Assay [4] has the same target. As to the kind of experiment: FRET or BRET; LRET saturation binding, homogeneous; fluorescein-sigma serially diluted, 10 nM Tb-core; TG (50 mM Tris-HCl pH 7.9, 5% glycerol) + 250 mM NaCl; 1 h at 22°C; [core]0 set at 5 nM in the fit.
Assay [5] shares this target. Briefly: FRET or BRET; LRET saturation binding, homogeneous; fluorescein-sigma serially diluted, 10 nM Tb-core; TG (50 mM Tris-HCl pH 7.9, 5% glycerol) + 500 mM KGlu; 1 h at 22°C; [core]0 set at 5 nM in the fit.
Assay [6] shares this target. Briefly: FRET or BRET; LRET saturation binding, homogeneous; fluorescein-sigma serially diluted, 10 nM Tb-core; TG (50 mM Tris-HCl pH 7.9, 5% glycerol) + 500 mM NaCl; 1 h at 22°C; [core]0 set at 5 nM in the fit.

T1 sequence (P0A7Z4 whole entry, chain 1 of 4): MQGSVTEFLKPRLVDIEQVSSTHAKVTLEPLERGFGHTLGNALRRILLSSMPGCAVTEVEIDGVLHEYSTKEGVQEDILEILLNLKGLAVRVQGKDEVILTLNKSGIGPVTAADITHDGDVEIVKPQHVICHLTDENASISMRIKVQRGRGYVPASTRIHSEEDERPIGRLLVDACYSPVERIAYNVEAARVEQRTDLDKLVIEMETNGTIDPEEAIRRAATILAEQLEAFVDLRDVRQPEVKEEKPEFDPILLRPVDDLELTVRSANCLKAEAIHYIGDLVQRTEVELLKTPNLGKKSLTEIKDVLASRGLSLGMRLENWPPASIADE
T1 sequence (P0A8V2 whole entry, chain 2 of 4): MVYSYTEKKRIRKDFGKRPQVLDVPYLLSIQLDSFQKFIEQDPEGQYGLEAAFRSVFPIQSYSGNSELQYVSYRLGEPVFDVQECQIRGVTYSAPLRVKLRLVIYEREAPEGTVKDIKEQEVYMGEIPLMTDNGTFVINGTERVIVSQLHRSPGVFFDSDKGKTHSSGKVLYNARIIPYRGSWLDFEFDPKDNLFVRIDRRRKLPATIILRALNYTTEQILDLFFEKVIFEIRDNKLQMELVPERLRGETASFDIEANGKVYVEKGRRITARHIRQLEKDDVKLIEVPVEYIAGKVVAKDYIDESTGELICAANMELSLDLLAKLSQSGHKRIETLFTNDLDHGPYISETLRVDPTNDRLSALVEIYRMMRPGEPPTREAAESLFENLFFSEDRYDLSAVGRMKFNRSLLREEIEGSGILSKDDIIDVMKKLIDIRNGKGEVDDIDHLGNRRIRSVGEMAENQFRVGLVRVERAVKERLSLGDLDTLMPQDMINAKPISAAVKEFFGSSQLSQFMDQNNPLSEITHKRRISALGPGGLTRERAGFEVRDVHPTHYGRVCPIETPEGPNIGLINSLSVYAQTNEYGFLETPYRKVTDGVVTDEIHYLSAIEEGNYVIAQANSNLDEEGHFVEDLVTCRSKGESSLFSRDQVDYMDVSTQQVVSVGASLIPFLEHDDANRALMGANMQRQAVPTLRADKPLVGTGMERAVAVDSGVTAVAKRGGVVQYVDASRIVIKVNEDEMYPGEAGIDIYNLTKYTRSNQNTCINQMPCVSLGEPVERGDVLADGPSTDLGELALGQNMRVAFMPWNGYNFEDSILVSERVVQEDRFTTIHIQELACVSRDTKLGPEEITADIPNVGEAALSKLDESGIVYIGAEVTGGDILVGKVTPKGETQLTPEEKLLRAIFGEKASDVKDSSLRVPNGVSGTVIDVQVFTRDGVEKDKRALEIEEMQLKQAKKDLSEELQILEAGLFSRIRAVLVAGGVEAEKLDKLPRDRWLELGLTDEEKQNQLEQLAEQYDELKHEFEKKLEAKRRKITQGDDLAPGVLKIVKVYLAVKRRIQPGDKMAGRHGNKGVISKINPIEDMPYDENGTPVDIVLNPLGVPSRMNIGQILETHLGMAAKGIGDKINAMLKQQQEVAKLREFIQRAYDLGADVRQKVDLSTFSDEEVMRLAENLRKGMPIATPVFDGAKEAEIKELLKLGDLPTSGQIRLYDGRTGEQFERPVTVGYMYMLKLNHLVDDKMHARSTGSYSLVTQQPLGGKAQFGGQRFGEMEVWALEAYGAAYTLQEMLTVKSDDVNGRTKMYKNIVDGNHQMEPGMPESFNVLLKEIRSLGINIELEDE
T1 sequence (P0A8T7 whole entry, chain 3 of 4): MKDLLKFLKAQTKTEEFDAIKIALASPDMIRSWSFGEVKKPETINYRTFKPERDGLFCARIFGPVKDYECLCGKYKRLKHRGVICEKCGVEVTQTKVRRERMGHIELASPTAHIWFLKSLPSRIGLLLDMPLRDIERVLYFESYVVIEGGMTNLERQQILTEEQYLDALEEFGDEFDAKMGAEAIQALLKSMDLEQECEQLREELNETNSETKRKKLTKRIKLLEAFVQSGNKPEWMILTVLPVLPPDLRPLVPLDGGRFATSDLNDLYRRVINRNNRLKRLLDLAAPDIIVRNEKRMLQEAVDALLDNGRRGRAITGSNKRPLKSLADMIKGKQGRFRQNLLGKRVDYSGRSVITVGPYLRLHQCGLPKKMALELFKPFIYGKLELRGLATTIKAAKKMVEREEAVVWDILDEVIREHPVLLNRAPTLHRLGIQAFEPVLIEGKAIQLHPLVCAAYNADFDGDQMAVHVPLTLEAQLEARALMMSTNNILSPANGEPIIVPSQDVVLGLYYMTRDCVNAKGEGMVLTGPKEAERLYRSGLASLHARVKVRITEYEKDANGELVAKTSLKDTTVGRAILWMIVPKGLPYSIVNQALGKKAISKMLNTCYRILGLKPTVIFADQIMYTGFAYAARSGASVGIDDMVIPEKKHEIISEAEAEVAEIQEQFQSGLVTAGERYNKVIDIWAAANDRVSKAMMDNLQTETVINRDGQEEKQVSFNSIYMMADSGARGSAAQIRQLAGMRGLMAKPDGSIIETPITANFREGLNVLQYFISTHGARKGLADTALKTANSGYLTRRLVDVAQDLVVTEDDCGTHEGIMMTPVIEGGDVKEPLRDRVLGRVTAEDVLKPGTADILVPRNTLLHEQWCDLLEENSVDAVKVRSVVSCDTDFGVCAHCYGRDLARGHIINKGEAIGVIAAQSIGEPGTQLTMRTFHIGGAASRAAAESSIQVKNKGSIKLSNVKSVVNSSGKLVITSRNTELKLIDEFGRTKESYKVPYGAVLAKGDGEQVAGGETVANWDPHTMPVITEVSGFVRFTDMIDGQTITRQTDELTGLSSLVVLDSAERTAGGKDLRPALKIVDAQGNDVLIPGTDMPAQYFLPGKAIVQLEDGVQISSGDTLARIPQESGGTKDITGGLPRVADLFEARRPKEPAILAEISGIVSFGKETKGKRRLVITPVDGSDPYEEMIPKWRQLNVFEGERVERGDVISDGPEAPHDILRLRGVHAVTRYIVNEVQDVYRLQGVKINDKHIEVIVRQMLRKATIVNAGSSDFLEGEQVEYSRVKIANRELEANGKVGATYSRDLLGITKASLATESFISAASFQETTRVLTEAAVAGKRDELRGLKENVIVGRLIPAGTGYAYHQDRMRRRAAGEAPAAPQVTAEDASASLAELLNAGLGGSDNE
T1 sequence (P0A800 whole entry, chain 4 of 4): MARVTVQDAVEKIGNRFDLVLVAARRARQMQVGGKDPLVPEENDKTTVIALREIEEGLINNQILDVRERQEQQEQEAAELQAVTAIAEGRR

B1: fluorescein-σ32 (natural protein, E. coli, UniProt P0AGB3 1-284, looked up)
chain: MTDKMQSLALAPVGNLDSYIRAANAWPMLSADEERALAEKLHYHGDLEAAKTLILSHLRFVVHIARNYAGYGLPQADLIQEGNIGLMKAVRRFNPEVGVRLVSFAVHWIKAEIHEYVLRNWRIVKVATTKAQRKLFFNLRKTKQRLGWFNQDEVEMVARELGVTSKDVREMESRMAAQDMTFDLSSDDDSDSQPMAPVLYLQDKSSNFADGIEDDNWEEQAANRLTDAMQGLDERSQDIIRARWLDEDNKSTLQELADRYGVSAERVRQLEKNAMKKLRAAIEA
modifications: fluorescein on randomly labeled lysine residues, 2:1 ratio of fluorescein to molecule of protein
notes: E. coli heat shock sigma factor σ32 (RpoH); also called F-σ32; RpoH
As a reminder, the Kd is the free concentration of one partner at which half of the binding sites on the other are occupied at equilibrium, for simple one-to-one binding. For the molecule B1, the Kd stood at 0.3 nM in assay [1]; 0.8 nM in assay [2]; 1.3 nM in assay [3]; 0.6 nM in assay [4]; 2 nM in assay [5]; 2.4 nM in assay [6].
